Experiment [1] addresses T1, human TROP-2 (hTROP-2) protein endogenously expressed on the cell surface of human cancer cell lines (human, UniProt P09758 27-323).
T1 construct: on PK-59, BxPC-3 and other human cancer cell lines, or in human tissue sections; also called TACSTD2; GA733-1
T1 sequence: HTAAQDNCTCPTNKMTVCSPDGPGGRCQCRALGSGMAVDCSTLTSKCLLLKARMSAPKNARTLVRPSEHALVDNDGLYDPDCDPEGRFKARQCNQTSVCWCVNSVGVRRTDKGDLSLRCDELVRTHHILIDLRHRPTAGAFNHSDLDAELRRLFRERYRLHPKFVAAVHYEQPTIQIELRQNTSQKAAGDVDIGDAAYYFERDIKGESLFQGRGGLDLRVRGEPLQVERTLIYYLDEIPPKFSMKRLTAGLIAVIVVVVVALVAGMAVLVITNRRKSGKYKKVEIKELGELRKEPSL
The experiment is described as follows: FACS on PK-59 cells, 0.1 µg antibody. The procedure: (§1) Cancer cells were removed from a culture dish by a trypsin treatment, and a cell suspension was then prepared (cell density: 2×10⁶ cells/mL). An anti-hTROP-2 monoclonal antibody (0.1 μg) was added to 100 μL of the cell suspension, and they were then reacted at 4° C. for 20 minutes. The reaction solution was washed with PBS, and it was then reacted with PE-labeled anti-mouse IgG (BD Biosciences Pharmingen) (0.1 μg) (at 4° C. for 30 minutes). Thereafter, the resultant was analyzed by FACSCalibur (Becton, Dickinson and Company).
(§2) Subsequently, the reactivity of the generated anti-hTROP-2 monoclonal antibodies with human cancer cell lines (in which an hTROP-2 protein was endogenously expressed on the cell surface) was examined by FACS analysis.

The target of a further experiment is T2, Table 9 peptide No. 26.
T2 sequence (peptide): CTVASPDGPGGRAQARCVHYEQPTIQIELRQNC
Briefly: PEPSCAN/CLIPS peptide ELISA, 1 µg/mL antibody. A general note: An ELISA detects its analyte on a solid surface through an enzyme-linked reagent.

Experiment [2] deals with T1, human TROP-2 (hTROP-2) protein …. Briefly: FACS on BxPC-3 cells, 0.1 µg antibody. On the procedure: as §1, §2

B1: anti-hTROP-2 monoclonal antibody clone K5-116-2-1 (antibody, V domains shown)
VH: QVQLQQPGAELVRPGASVKLSCKASGYTFTSYWITWVKQRPGQGLEWIGNIYPSDSYTNYNQKFRDKATLTVDKSSSTAYMQLSSPTSEDSAVYYCSALFDYWGQGTTLTVSS
VL: DILLTQSPAILSVSPGERVSFSCRASQSIGTSIHWYQQRTNGSPRLLIKYASESISGIPSRFSGSGSGTDFILSINSVESEDIADYYCQQSNSWPFTFGSGTKLEIK
notes: mouse IgG2a; hybridoma FERM BP-11253
With B1, the “mean fluorescence intensity relative to PE-labeled anti-mouse IgG alone” value came to 122 times in experiment [1] and 121 times in experiment [2]. Moreover, the binding of K5-116-2-1 with Table 9 peptide No. 26 was 1220.

(Values after patent US20130344509A1 (published 2013).)
